Consider one molecule from patent publication US20210139907, “MATERIALS AND METHODS FOR THE DELIVERY OF THERAPEUTIC NUCLEIC ACIDS TO TISSUES” (UNIVERSITY OF MIAMI, published 2021).

In this series the target is TMED6 (Homo sapiens, UniProt Q8WW62 Q8WW62:22-240). Nature of the series: competition; recombinant TMED6 (aptamer/protein molar ratio 1/1-1/10) dose-dependently inhibits aptamer staining of human pancreas sections. To be noted: tags: HuProt v2.0 protein array (Arrayit); label: Cy3. The protocol: To identify the target of aptamer 1-717, protein arrays (HuProt™v2.0, Arrayit) were used. These protein arrays contains more than 19,000 human recombinant proteins allowing, by informatics analysis, the identification of the cognate protein of antibodies, peptides, or protein. This technology has been adapted for the identification of aptamer's ligands. Briefly, pre-blocked arrays were hybridized with 1 μg of cy3 labeled 1-717 or m12-3773 in blocking buffer for 30′ at RT. Arrays were washed, read in triplicate on a Genepix microarray reader and analyzed by an ad hoc generated software. This software 1) acquires the data from the gpr file, 2) adds a description column with (GeneID, Control, blank, ND), 2) use a optimized “plotArray” function modified in several points (the script was implemented for a specific protein array, plus some problem in UTF file format), 3) performs a quality control that includes a microarray image rebuilding the generation of MA plots, 4) normalized the data and substracts the background; and 5) analyze the differential expression between arrays via graphs of p-value distribution, volcano plot, and analysis of significant modulation by t-test. This analysis proposed TMED6 (NM144676.1, protein id Q8WW62) as the most likely ligand of aptamer 1-717. […] Images were acquired by a fluorescence microscope and aptamer binding quantified by cellprofiler.
TMED6, sequence (Q8WW62 22-240, one chain of several): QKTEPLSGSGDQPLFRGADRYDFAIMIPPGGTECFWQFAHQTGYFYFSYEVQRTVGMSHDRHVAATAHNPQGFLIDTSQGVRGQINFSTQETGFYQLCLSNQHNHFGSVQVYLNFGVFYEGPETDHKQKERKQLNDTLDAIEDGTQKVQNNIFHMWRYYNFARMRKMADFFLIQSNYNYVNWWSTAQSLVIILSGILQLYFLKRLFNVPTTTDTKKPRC

B1: 1-717 (ssRNA)
RNA: GGAGGACGAUGCGGUAAUUCUCAGGAGGUGCGGAACGGGAUAUGGAUUGUUCGCCAGACGACUCGCUGAGGAUCCGAGA
modifications: 2'-F pyrimidines (2'-F-dCTP, 2'-F-dUTP in selection transcription)
Turning to B1, the binding result is “binds”.
